Results reported in article PMC12697862.

Target: IP3R1 channel fragment E
Assay: co-IP (IP: Flag, immunoblot for Myc) with band quantification
Conditions: LV-GRP75-Flag(mutant) with IP3R1E-Myc; n = 5; means ± SEM; read off a plot

response (relative level of Myc/Flag (IP group)) | Substance
0.47 | GRP75, transfected for co-IP (from UniProt P38647) K567Q; K612Q
1 | GRP75, transfected for co-IP (from UniProt P38647) K567R; K612R
